Test results from patent publication US12692524B2, “Sialyltransferases and their use in producing sialylated oligosaccharides” (Chr. Hansen A/S, priority 2017, dated 2026).

Key:
[1] = In vitro sialylation of LNT by protein extracts, LST-a/-b quantified by LC-MS/MS; format: biochemical; details: 5 mM LNT, 10 mM CMP-Neu5Ac, 16 hours, LC-MS/MS; relative quantity; n.d.: not detectable
Outline: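 E. coli BL21(DE3) crude extracts overexpressing sialyltransferases (IPTG 0.3 mM, 12–16 h at 30 °C) incubated 16 h with 5 mM LNT and 10 mM CMP-Neu5Ac in 50 mM Tris-HCl pH 7.5, 5 mM MgCl2. LST-a and LST-b measured by HILIC LC-MS/MS, MRM in ESI negative mode, against commercial standards.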

[2] = In vivo screening in E. coli #1363/#1730 with lactose as acceptor, sialyllactose identified by TLC; format: cell-based, Escherichia coli BL21(DE3); details: 1.5 mM lactose, 72 to 96 hours, qualitative via TLC
Description: Escherichia coli BL21(DE3) #1363 and #1730 harbouring plasmids encoding for 100 sialyltransferases were grown at 30° C. in 100 ml shake flasks filled with 20 ml of mineral salts medium (Samain et al., J. Biotech. 1999, 72:33-47) supplemented with 2% (wt/vol) glucose, ampicillin 100 μg ml^−1, kanamycin 15 μg ml^−1 and zeocin 40 μg ml^−1. When the cultures reached an OD600 of 0.1 to 0.3, gene expression was induced by addition of 0.3 mM IPTG. After an incubation for one hour, 1.5 mM lactose was added to #1363 cultures whereas 1.5 mM lactose as well as 1.5 mM sialic acid was added to #1730 cultures. The incubation continued for 72 to 96 hours. Then, cells were harvested by centrifugation and mechanically disrupted in a defined volume using glass beads. Subsequently, samples were applied to thin layer chromatography (TLC) on Silica Gel 60 F254 (Merck KGaA, Darmstadt, Germany). A mixture of butanol:acetone:acetic acid:H2O (35/35/7/23 (v/v/v/v)) was used as mobile phase. For detection of the separated substances, the TLC plate was soaked with thymol reagent (0.5 g thymol solved in 95 ml ethanol, 5 ml sulfuric acid added) and heated.
In the entire screening, thirty two genes were identified to encode for α-2,3-sialyltransferases, thus producing 3′-SL. 19 enzymes synthesized 6′-SL and were depicted as α-2,6-sialyltransferases. An α-2,3- as well as an α-2,6-sialyltransferase activity could only be observed for 3 enzymes. […] The screening appeared highly accurate since the described activities of extensively characterized sialyltransferases, e. g. […] Regarding the product formation, the experimental setting allowed a semi-quantitative comparison of the screened enzymes. But to achieve deeper knowledge about their kinetic properties, the 3 potentially best performing α-2,3- and α-2,6-sialyltransferases were applied to in vitro assays.

Molecule	Relative efficacy of sialyltransferases regarding in-vitro production of sialyllacto-N-tetraoses: LST-a [1]	Production of sialyllactose in-vivo [2]
SiaT16: sialyltransferase of Haemophilus ducreyi 35000HP, acc. AAP95068, SEQ ID NO: 27 (protein, listed as Haemophilus ducreyi) MLIQQNLEIYLDYATIPSLACFMHFIQHKDDVDSIRLFGLARFDIPQSIIDRYPANHLFYHNIDNRDLTAVLNQLADILAQENKRFQINLHLNLFHSIDLFFAIYPIYQQYQHKISTIQLQLYDDGSEGIVTQHSLCKIADLEQLILQHKNVLLELLTKGTANVPNPTLLRYLWNNIIDSQFHLISDHFLQHPKLQPLKRLLKRYTILDFTCYPRFNAEQKQLLKEILHISNELENLLKLLKQHNTFLFTGTTAFNLDQEKLDLLTQLHILLLNEHQNPHSTHYIGNNYLLLIKGHANSPALNHTLALHFPDAIFLPANIPFEIFAMLGFTPNKMGGFASTSYINYPTENINHLFFLTSDQPSIRTKWLDYEKQFGLMYSLLAMQKINEDQAFMCTIHN	1	3′-SL
SiaT21: sialyltransferase of Vibrio harveyi, acc. WP_017817635, SEQ ID NO: 21 (protein, listed as Vibrio harveyi) MDSSPENTSSTLEIYIDSATLPSLQHMVKIIDEQSGNKKLINWKRYPIDDELLLDKINALSFSDTTDLTRYMESILLIGDIKRVVINGNSLSNYNIVGVMRSINALGLDLDVEINFYDDGSAEYVRLYNFSQLPEAERELLVSMSKNNILAAVNGIGSYDSGSPENIYGFAQIYPATYHMLRADIFDTDLEIGLIRDILGDNVKQMKWGQFLGFNEEQKELFYQLTSFNPDKIQAQYKESPNKNFVFVGTNSRSATAEQQINIIKEAKKLDSEIIPNSIDGYDLFFKGHPSATYNQQIVDAHDMTEIYNRTPFEVLAMTSSLPDAVGGMGSSLFFSLPKTVETKFIFYKSGTDIESNALIQVMLKLGIITDEKVRFTTDIK	12	3′-SL
SiaT24: sialyltransferase of Avibacterium paragaffinarum, acc. WP_021724759, SEQ ID NO: 9 (protein, listed as Avibacterium paragallinarum) MRKIITFFSLFFSISAWCQKMEIYLDYASLPSLNMILNLVENKNNEKVERIIGFERFDFNKEILNSFSKERIEFSKVSILDIKEFSDKLYLNIEKSDTPVDLIIHTNLDHSVRSLLSIFKTLSPLFHKINIEKLYLYDDGSGNYVDLYQHRQENISAILIEAQKKLKDALENRETDTDKLHSLTRYTWHKIFPTEYILLRPDYLDIDEKMQPLKHFLSDTIVSMDLSRFSHFSKNQKELFLKITHFDQNIFNELNIGTKNKEYKTFIFTGTTTWEKDKKKRLNNAKLQTEILESFIKPNGKFYLGNDIKIFFKGHPKGDDINDYIIRKTGAEKIPANIPFEVLMMTNSLPDYVGGIMSTVYFSLPPKNIDKVVFLGSEKIKNENDAKSQTLSKLMLMLNVITPEQIFFEEMPNPINF	835	3′-SL
SiaT31: sialyltransferase of Alistipes sp. CAG:268, acc. CDC95697, SEQ ID NO: 22 (protein, listed as Alistipes sp.) MASCSDDDKEQTGFQIDDGSGFLSLDAAARSGSIAITANNSWSVTQDKDSEWLTLSTTSGAAGRTEIGIMLEANPGEARNAGLTFNSGGRTYPFVITQSAHVTADFDDADHCFYITFGTLPTLYAGLHVLSHDKPSYVFFQRSQTFRPEEFPAHAEVTIAADPSANATDEDMERMRTAMKQQILKINVEDPTAVFGLYVDDLRCGIGYDWFVAQGIDSTRVKVSMLSDGTGTYNNFYNYFGDPATAEQNWENYAAQVEALDWQHGGRFPETRMPDGFDFYEWPYYLATRPNYRLVLQDDDLLEATSPFMTERLQQMRTESKQPYELLASLPAEARQRFFRMAGFDYDAFAALFDASPKKNLVIIGTSHTSEESEAQQAAYVERIIGDYGTAYDIFFKPHPADSSSSNYEERFEGLTLLPGQMPFEIFVWSLLDKVDLIGGYSSTVFLTVPVEKTGFIFAANAESLPRPLNVLFRNAEHVRWIQ	4	3′-SL
SiaT30: sialyltransferase of Haemophilus parahaemolyticus HK385, acc. EIJ71207, SEQ ID NO: 19 (protein, listed as Haemophilus parahaemolyticus) MTEQYIKNVEVYLDYATIPTLNYFYHFTENKDDIATIRLFGLGRFNISKSIIESYPEGIIRYCPIIFEDQTAFQQLFITLLTEDSFCQYRFNFHINLFHSWKMLIPLLHIIWQFKHKVLDIKLNFYDDGSEGLVTLSKIEQNYSSEILQKIIDIDSQSFYADKLSFLDEDIARYLWNSLFESHYYLLNDFLLKNEKLSLLKNSIKYCHIMDLERYLQFTQEEKDFFNELLGINIQSLEDKIKIFQQKKTFIFTGTTIFSLPKEEEETLYRLHLNAILNYIHPNGKYFIGDGFTLVIKGHPHQKEMNSRLEKSFEKAVMLPDNIPFEILYLIGCKPDKIGGFVSTSYFSCDKKNIADLLFISARQEEVRKNDYLFNIQYQLRDMMIKTGFIQEEKTHFYSDIPIFIS	17	3′-SL
SiaT17: sialyltransferase of Photobacterium phosphoreum JT-ISH-467, acc. BAF63530, SEQ ID NO: 8 (protein, listed as Photobacterium phosphoreum) MGCNSDSKHNNSDGNITKNKTIEVYVDRATLPTIQQMTQIINENSNNKKLISWSRYPINDETLLESINGSFFKNRPELIKSLDSMILTNEIKKVIINGNTLWAVDVVNIIKSIEALGKKTEIELNFYDDGSAEYVRLYDFSRLPESEQEYKISLSKDNIQSSINGTQPFDNSIENIYGFSQLYPTTYHMLRADIFETNLPLTSLKRVISNNIKQMKWDYFTTFNSQQKNKFYNFTGFNPEKIKEQYKASPHENFIFIGTNSGTATAEQQIDILTEAKKPDSPIITNSIQGLDLFFKGHPSATYNQQIIDAHNMIEIYNKIPFEALIMTDALPDAVGGMGSSVFFSLPNTVENKFIFYKSDTDIENNALIQVMIELNIVNRNDVKLISDLQ	1.24 × 10^3	3′-SL
SiaT22: sialyltransferase of Streptococcus entericus, acc. WP_018369230, SEQ ID NO: 13 (protein, listed as Streptococcus entericus) MKKVYFCHTVYHLLITLCKISVEEQVEIIVFDTVSNHELIVQKIRDVFVNTTVLFAEQNTDFSILEIDRATDIYVFNDWTPIGAYLRKNKLFYHLIEDGYNYHEYNVYANALTMKRRLLNFVLRREEPSGFSRYVRSIEVNRVKYLPNDCRKSKWVEKPRSALFENLVPEHKQKIITIFGLENYQDSLRGVLVLTQPLVQDYWDRDITTEEEQLEFYRQIVESYGEGEQVFFKIHPRDKVDYSSLTNVIFLKKNVPMEVYELIADCHFTKGITHSSTALDFLSCVDKKITLKQMKANS	564	3′-SL
